One data set relates to NCI-H69 xenografts. Nature of the data set: ASS-positive NCI-H69 SCLC xenografts in BALB/c-nude mice. The data set is classed as in vivo. To be noted: five doses of 2 IU over 20 days, intraperitoneal. The procedure: (§1) The activity of ADI-PEG 20 was also assessed in mice bearing ASS-positive NCI-H69 SCLC xenografts. Small cell lung cancer xenografts were established in female BALB/c-nude mice, 3-4 weeks of age weighing ˜20 g (Charles River Labs, Wilmington, Mass., USA). To establish the tumors, 10×10^6 cells in media were mixed 1:1 with Matrigel High Concentration (BD Biosciences) and injected subcutaneously in the abdominal area of the mice. Tumor growth was regularly measured and tumor volume calculated using the formula (TV=(length×width^2)/2). All animal studies were approved by the MSKCC Institutional Animal Care and Use Committee. Mice were euthanized when tumors reached an approximate volume of 1,000 mm^3.
The anti-tumor efficacy of ADI-PEG 20 was simultaneously assessed in mice bearing either moderate or large SK-LC-13 SCLC xenografts. In the first study, treatment was initiated once tumors had reached an average size of 125 mm^3. In the large xenograft study, treatment was initiated once tumors had reached an average size of 500 mm^3. Arginine deiminase-PEG20 was administered at doses of 1, 2 and 5 IU per animal once every 5 days for 20 days (five doses). […] Additionally, the efficacy of ADI-PEG 20 was assessed in mice bearing ASS-positive NCI-H69 xenografts. […]

Data set [1] deals with sarcoma cell lines with low expression of ASS. Nature of the data set: Sarcoma cell line panel treated with ADI-PEG 20. In kind it is cell-based.
Data set [2] deals with L-arginine and L-citrulline. Put plainly: Serum arginine and citrulline by HPLC. The data set is classed as in vivo, mice. The method, then:
In order to determine the effect of ADI-PEG 20 treatment on systemic arginine levels, mice sera were analyzed using high-performance liquid chromatography (HPLC). L-arginine and L-citrulline were resolved with a Pickering Laboratories PCX 5200 post-column derivatization instrument (Pickering Laboratories, Mountain View, Calif., USA) at 39° C. reaction temperature and a fluorescence detector. […] Total ADI-PEG 20 levels were measured by ELISA, as described previously (Holtsberg et al, J Control Release 80(1-3):259-271, 2002).

A further data set relates to SK-LC-13. Nature of the data set: Western blot of autophagy-related protein LC3-II. The data set is classed as cell-based, human. To be noted: 24 hour incubation. The text has this: Following washing, the membranes were then probed with the appropriate secondary antibody before proteins were finally visualized using ECL reagent (Perkin-Elmer, Fremont Calif., USA).
An assay for the formation of the autophagy-related protein LC3-II assessed if treatment with ADI-PEG 20 was able to induce cellular autophagy in SCLC. […] Chloroquine is a known inhibitor of autophagy that disrupts normal lysosomal functions, and thus results in an increase in the cellular level of LC3-II.
(In general: Immunoblotting shows a protein as a band on a membrane.)

A further data set deals with SK-LC-13 xenografts. Put plainly: Moderately sized SK-LC-13 SCLC xenografts in BALB/c-nude mice. The data set is classed as in vivo. The method, then: as §1
(§2) The anti-tumor efficacy of ADI-PEG 20 was simultaneously assessed in mice bearing either moderate or large SK-LC-13 SCLC xenografts. In the first study, treatment was initiated once tumors had reached an average size of 125 mm^3. In the large xenograft study, treatment was initiated once tumors had reached an average size of 500 mm^3. Arginine deiminase-PEG20 was administered at doses of 1, 2 and 5 IU per animal once every 5 days for 20 days (five doses). To assess the effect of sustained dosing, further groups (n=5) at all dose levels received continued administration of ADI-PEG 20 every 5 days until tumors progressed to the 1,000 mm^3 size limit. Additionally, the efficacy of ADI-PEG 20 was assessed in mice bearing ASS-positive NCI-H69 xenografts. Here, mice received five doses of 2 IU ADI-PEG 20 for 20 days once tumor had reached an average size of 150 mm^3. Arginine deiminase-PEG20 was administered by intraperitoneal injection in all studies. The specific activity of ADI-PEG 20 used in these studies is 9 IU mg^−1 of protein. Thus, 1 IU of ADI-PEG 20 per 20 g mouse is equivalent to 160 IU m^−2.
Efficacy of ADI-PEG 20 treatment in vivo was assessed by comparing means of control and treatment groups using unpaired two-tailed t-tests at the termination of control groups using GraphPad Prism (Version 5.0, GraphPad Software Inc., La Jolla, Calif., USA).

A short description of data set [3]: Specific activity of ADI-PEG 20. In kind it is biochemical. The procedure: as §2

Consider 1 molecule from patent US9333268B2, “Methods of treatment with arginine deiminase” (Polaris Group, priority 2012, dated 2016).

B1: ADI-PEG 20: arginine deiminase (ADI) formulated with PEG of 20,000 m.w. (protein)
chain: MSVFDSKFNGIHVYSEIGELETVLVHEPGREIDYITPARLDELLFSAILESHDARKEHQSFVKIMKDRGINVVELTDLVAETYDLASKAAKEEFIETFLEETVPVLTEANKEAVRAFLLSKPTHEMVEFMMSGITKYELGVESENELIVDPMPNLYFTRDPFASVGNGVTIHFMRYIVRRRETLFARFVFRNHPKLVKTPWYYDPAMKMSIEGGDVFIYNNETLVVGVSERTDLDTITLLAKNIKANKEVEFKRIVAINVPKWTNLMHLDTWLTMLDKNKFLYSPIANDVFKFWDYDLVNGGAEPQPQLNGLPLDKLLASIINKEPVLIPIGGAGATEMEIARETNFDGTNYLAIKPGLVIGYDRNEKTNAALKAAGITVLPFHGNQLSLGMGNARCMSMPLSRKDVKW
On to B1, for which, in the data set on NCI-H69 xenografts, the tumor growth entry was “did not produce any effect on tumor growth”. In addition, the “cell cycle and apoptosis” value in data set [1] (ASS expression low) is listed as “cell cycle arrest but not apoptosis”. For the same molecule, in data set [1] (sarcomas that lack ASS), the autophagy result is “induced autophagy”. Moreover, the IC50 (usually the concentration that gives 50% inhibition) in data set [1] (sensitive cell lines with low expression of ASS) lay within 0.02 to 0.1 µg/mL. Besides, the citrulline levels entry in data set [2] (1, 2, 5 IU) is “rose in a dose-dependent relationship to arginine”; in data set [2] (continued dosing, 2 and 5 IU) it was “Little increase in citrulline levels”; in data set [2] (extended dosing, 1 IU), “increased with extended dosing”. Moreover, in data set [2] (20 days after the last dose (day 40)), the “serum arginine after end of dosing” value is listed as “returned to normal levels”. For the same molecule, the arginine serum levels entry in data set [2] (extended dosing, 1 IU) was “below the limits of detection”. The serum arginine result in data set [2] (short course of treatment) is given as “only temporarily depleted serum arginine”. Moreover, the “cellular level of LC3-II” value in the data set with SK-LC-13 is “clear increase in the detectable cellular level of the protein”. The “tumor growth relative to control mice” value in the data set on SK-LC-13 xenografts (1, 2 and 5 IU per animal every 5 days, intraperitoneal) is “significant and dose-dependent reduction in tumor growth”. Besides, the “mean tumor volumes, short vs continued dosing” value in the data set on SK-LC-13 xenografts (1 IU (P=0.251)) and in the data set with SK-LC-13 xenografts (2 IU (P=0.084)) was “not significantly different” each time. Further, the “tumor size, continued dosing vs dosing for only 20 days” value in the data set with SK-LC-13 xenografts (5 IU every 5 days, at completion of the study (P=0.0063)) is “significantly smaller”. In the data set with SK-LC-13 xenografts (day 33, regardless of dose or schedule (P>0.0001)), the “mean tumor volume of control mice compared with ADI-PEG 20-treated groups” value was “significantly larger”. Moreover, in data set [3], the specific activity is given as 9 IU mg^−1 of protein.
